{"source": "patent US20180155406A1", "about": "(Sanofi, published 2018)", "binders": {"B1": {"name": "SEQ ID NO: 16 (peptide)", "peptide": "H[Aib]HGTFTSDLSKLK([γGlu-Palmitoyl])EEQRQ[Aib]EFIEWLKA[dA]GPPS[Aib]KPPPK-NH2", "modifications": "N-terminus assumed", "SMILES": "CCCCCCCCCCCCCCCC(=O)N[C@@H](CCC(=O)NCCCC[C@H](NC(=O)[C@H](CC(C)C)NC(=O)[C@H](CCCCN)NC(=O)[C@H](CO)NC(=O)[C@H](CC(C)C)NC(=O)[C@H](CC(=O)O)NC(=O)[C@H](CO)NC(=O)[C@@H](NC(=O)[C@H](Cc1ccccc1)NC(=O)[C@@H](NC(=O)CNC(=O)[C@H](Cc1c[nH]cn1)NC(=O)C(C)(C)NC(=O)[C@@H](N)Cc1c[nH]cn1)[C@@H](C)O)[C@@H](C)O)C(=O)N[C@@H](CCC(=O)O)C(=O)N[C@@H](CCC(=O)O)C(=O)N[C@@H](CCC(N)=O)C(=O)N[C@@H](CCCNC(=N)N)C(=O)N[C@@H](CCC(N)=O)C(=O)NC(C)(C)C(=O)N[C@@H](CCC(=O)O)C(=O)N[C@@H](Cc1ccccc1)C(=O)N[C@H](C(=O)N[C@@H](CCC(=O)O)C(=O)N[C@@H](Cc1c[nH]c2ccccc12)C(=O)N[C@@H](CC(C)C)C(=O)N[C@@H](CCCCN)C(=O)N[C@@H](C)C(=O)N[C@H](C)C(=O)NCC(=O)N1CCC[C@H]1C(=O)N1CCC[C@H]1C(=O)N[C@@H](CO)C(=O)NC(C)(C)C(=O)N[C@@H](CCCCN)C(=O)N1CCC[C@H]1C(=O)N1CCC[C@H]1C(=O)N1CCC[C@H]1C(=O)N[C@@H](CCCCN)C(N)=O)[C@@H](C)CC)C(=O)O"}, "B2": {"name": "SEQ ID NO: 17 (peptide)", "peptide": "H[Aib]HGTFTSDLSKLK([γGlu-Stearoyl])EEQRQ[Aib]EFIEWLKA[dA]GPPS[Aib]KPPPK-NH2", "modifications": "N-terminus assumed", "SMILES": "CCCCCCCCCCCCCCCCCC(=O)N[C@@H](CCC(=O)NCCCC[C@H](NC(=O)[C@H](CC(C)C)NC(=O)[C@H](CCCCN)NC(=O)[C@H](CO)NC(=O)[C@H](CC(C)C)NC(=O)[C@H](CC(=O)O)NC(=O)[C@H](CO)NC(=O)[C@@H](NC(=O)[C@H](Cc1ccccc1)NC(=O)[C@@H](NC(=O)CNC(=O)[C@H](Cc1c[nH]cn1)NC(=O)C(C)(C)NC(=O)[C@@H](N)Cc1c[nH]cn1)[C@@H](C)O)[C@@H](C)O)C(=O)N[C@@H](CCC(=O)O)C(=O)N[C@@H](CCC(=O)O)C(=O)N[C@@H](CCC(N)=O)C(=O)N[C@@H](CCCNC(=N)N)C(=O)N[C@@H](CCC(N)=O)C(=O)NC(C)(C)C(=O)N[C@@H](CCC(=O)O)C(=O)N[C@@H](Cc1ccccc1)C(=O)N[C@H](C(=O)N[C@@H](CCC(=O)O)C(=O)N[C@@H](Cc1c[nH]c2ccccc12)C(=O)N[C@@H](CC(C)C)C(=O)N[C@@H](CCCCN)C(=O)N[C@@H](C)C(=O)N[C@H](C)C(=O)NCC(=O)N1CCC[C@H]1C(=O)N1CCC[C@H]1C(=O)N[C@@H](CO)C(=O)NC(C)(C)C(=O)N[C@@H](CCCCN)C(=O)N1CCC[C@H]1C(=O)N1CCC[C@H]1C(=O)N1CCC[C@H]1C(=O)N[C@@H](CCCCN)C(N)=O)[C@@H](C)CC)C(=O)O"}, "B3": {"name": "SEQ ID NO: 15 (peptide)", "peptide": "H[Aib]HGTFTSDLSKLK([γGlu-γGlu-AEEA-Palmitoyl])EEQRQKEFIEWLKA[dA]GHPS[Aib]KPPPK-NH2", "modifications": "N-terminus assumed", "SMILES": "CCCCCCCCCCCCCCCC(=O)NCCOCCOCC(=O)N[C@@H](CCC(=O)N[C@@H](CCC(=O)NCCCC[C@H](NC(=O)[C@H](CC(C)C)NC(=O)[C@H](CCCCN)NC(=O)[C@H](CO)NC(=O)[C@H](CC(C)C)NC(=O)[C@H](CC(=O)O)NC(=O)[C@H](CO)NC(=O)[C@@H](NC(=O)[C@H](Cc1ccccc1)NC(=O)[C@@H](NC(=O)CNC(=O)[C@H](Cc1c[nH]cn1)NC(=O)C(C)(C)NC(=O)[C@@H](N)Cc1c[nH]cn1)[C@@H](C)O)[C@@H](C)O)C(=O)N[C@@H](CCC(=O)O)C(=O)N[C@@H](CCC(=O)O)C(=O)N[C@@H](CCC(N)=O)C(=O)N[C@@H](CCCNC(=N)N)C(=O)N[C@@H](CCC(N)=O)C(=O)N[C@@H](CCCCN)C(=O)N[C@@H](CCC(=O)O)C(=O)N[C@@H](Cc1ccccc1)C(=O)N[C@H](C(=O)N[C@@H](CCC(=O)O)C(=O)N[C@@H](Cc1c[nH]c2ccccc12)C(=O)N[C@@H](CC(C)C)C(=O)N[C@@H](CCCCN)C(=O)N[C@@H](C)C(=O)N[C@H](C)C(=O)NCC(=O)N[C@@H](Cc1c[nH]cn1)C(=O)N1CCC[C@H]1C(=O)N[C@@H](CO)C(=O)NC(C)(C)C(=O)N[C@@H](CCCCN)C(=O)N1CCC[C@H]1C(=O)N1CCC[C@H]1C(=O)N1CCC[C@H]1C(=O)N[C@@H](CCCCN)C(N)=O)[C@@H](C)CC)C(=O)O)C(=O)O"}, "B4": {"name": "SEQ ID NO: 14 (peptide)", "peptide": "H[Aib]HGTFTSDLSKLK([γGlu-γGlu-AEEA-Palmitoyl])EEQRQKEFIEWLKAGGHPS[Aib]KPPPK-NH2", "modifications": "N-terminus assumed", "SMILES": "CCCCCCCCCCCCCCCC(=O)NCCOCCOCC(=O)N[C@@H](CCC(=O)N[C@@H](CCC(=O)NCCCC[C@H](NC(=O)[C@H](CC(C)C)NC(=O)[C@H](CCCCN)NC(=O)[C@H](CO)NC(=O)[C@H](CC(C)C)NC(=O)[C@H](CC(=O)O)NC(=O)[C@H](CO)NC(=O)[C@@H](NC(=O)[C@H](Cc1ccccc1)NC(=O)[C@@H](NC(=O)CNC(=O)[C@H](Cc1c[nH]cn1)NC(=O)C(C)(C)NC(=O)[C@@H](N)Cc1c[nH]cn1)[C@@H](C)O)[C@@H](C)O)C(=O)N[C@@H](CCC(=O)O)C(=O)N[C@@H](CCC(=O)O)C(=O)N[C@@H](CCC(N)=O)C(=O)N[C@@H](CCCNC(=N)N)C(=O)N[C@@H](CCC(N)=O)C(=O)N[C@@H](CCCCN)C(=O)N[C@@H](CCC(=O)O)C(=O)N[C@@H](Cc1ccccc1)C(=O)N[C@H](C(=O)N[C@@H](CCC(=O)O)C(=O)N[C@@H](Cc1c[nH]c2ccccc12)C(=O)N[C@@H](CC(C)C)C(=O)N[C@@H](CCCCN)C(=O)N[C@@H](C)C(=O)NCC(=O)NCC(=O)N[C@@H](Cc1c[nH]cn1)C(=O)N1CCC[C@H]1C(=O)N[C@@H](CO)C(=O)NC(C)(C)C(=O)N[C@@H](CCCCN)C(=O)N1CCC[C@H]1C(=O)N1CCC[C@H]1C(=O)N1CCC[C@H]1C(=O)N[C@@H](CCCCN)C(N)=O)[C@@H](C)CC)C(=O)O)C(=O)O"}, "B5": {"name": "SEQ ID NO: 13 (peptide)", "peptide": "H[Aib]HGTFTSDLSKLK([γGlu-γGlu-Palmitoyl])EEQRQ[Aib]EFIEWLKA[dA]GHPS[Aib]KPPPK-NH2", "modifications": "N-terminus assumed", "SMILES": "CCCCCCCCCCCCCCCC(=O)N[C@@H](CCC(=O)N[C@@H](CCC(=O)NCCCC[C@H](NC(=O)[C@H](CC(C)C)NC(=O)[C@H](CCCCN)NC(=O)[C@H](CO)NC(=O)[C@H](CC(C)C)NC(=O)[C@H](CC(=O)O)NC(=O)[C@H](CO)NC(=O)[C@@H](NC(=O)[C@H](Cc1ccccc1)NC(=O)[C@@H](NC(=O)CNC(=O)[C@H](Cc1c[nH]cn1)NC(=O)C(C)(C)NC(=O)[C@@H](N)Cc1c[nH]cn1)[C@@H](C)O)[C@@H](C)O)C(=O)N[C@@H](CCC(=O)O)C(=O)N[C@@H](CCC(=O)O)C(=O)N[C@@H](CCC(N)=O)C(=O)N[C@@H](CCCNC(=N)N)C(=O)N[C@@H](CCC(N)=O)C(=O)NC(C)(C)C(=O)N[C@@H](CCC(=O)O)C(=O)N[C@@H](Cc1ccccc1)C(=O)N[C@H](C(=O)N[C@@H](CCC(=O)O)C(=O)N[C@@H](Cc1c[nH]c2ccccc12)C(=O)N[C@@H](CC(C)C)C(=O)N[C@@H](CCCCN)C(=O)N[C@@H](C)C(=O)N[C@H](C)C(=O)NCC(=O)N[C@@H](Cc1c[nH]cn1)C(=O)N1CCC[C@H]1C(=O)N[C@@H](CO)C(=O)NC(C)(C)C(=O)N[C@@H](CCCCN)C(=O)N1CCC[C@H]1C(=O)N1CCC[C@H]1C(=O)N1CCC[C@H]1C(=O)N[C@@H](CCCCN)C(N)=O)[C@@H](C)CC)C(=O)O)C(=O)O"}}, "note": "Numbered stars: 1 amine (or outer) side, 2 acyl side, 3 side chain; on linkers, the order of the positions; unused ones are H or OH. Square brackets hold non-standard residues; d marks the D form. Side chains are listed from the residue outwards. Ends that are not written are not given here. * marks the point of attachment. γGlu = O=C(O)[C@H](CCC(=O)[*:2])N[*:1]; Stearoyl = CCCCCCCCCCCCCCCCCC(=O)*; Palmitoyl = CCCCCCCCCCCCCCCC(=O)*; AEEA = NCCOCCOCC(=O)O; Aib = CC(C)(N)C(=O)O"}
{"target": "T1, human GIP receptor (human, UniProt P48546 22-466)", "T1 sequence (looked up)": "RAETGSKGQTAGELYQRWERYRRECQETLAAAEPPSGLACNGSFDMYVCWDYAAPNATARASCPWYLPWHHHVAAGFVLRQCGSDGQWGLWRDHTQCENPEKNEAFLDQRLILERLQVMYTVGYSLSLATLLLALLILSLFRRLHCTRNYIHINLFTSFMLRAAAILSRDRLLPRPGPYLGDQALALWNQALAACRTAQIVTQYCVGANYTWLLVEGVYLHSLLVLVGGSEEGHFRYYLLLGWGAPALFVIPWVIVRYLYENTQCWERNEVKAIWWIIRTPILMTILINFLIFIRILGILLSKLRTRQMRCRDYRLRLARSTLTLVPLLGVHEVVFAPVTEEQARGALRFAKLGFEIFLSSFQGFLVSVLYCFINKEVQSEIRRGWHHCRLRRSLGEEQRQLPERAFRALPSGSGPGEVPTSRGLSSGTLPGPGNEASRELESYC", "assay": "cell-based or functional assay", "units": {"EC50 hGIP R (cAMP formation)": "pM"}}
{"binder": "B1", "EC50 hGIP R (cAMP formation)": 3.7}
{"binder": "B2", "EC50 hGIP R (cAMP formation)": 7.3}
{"binder": "B3", "EC50 hGIP R (cAMP formation)": 1.8}
{"binder": "B4", "EC50 hGIP R (cAMP formation)": 1.2}
{"binder": "B5", "EC50 hGIP R (cAMP formation)": 2.7}
{"target": "human GLP-1 receptor (human, UniProt P43220 24-463)", "assay": "cell-based or functional assay", "units": {"EC50 hGLP-1R (cAMP formation)": "pM"}}
{"binder": "B1", "EC50 hGLP-1R (cAMP formation)": 7.1}
{"binder": "B2", "EC50 hGLP-1R (cAMP formation)": 6.4}
{"binder": "B3", "EC50 hGLP-1R (cAMP formation)": 1.1}
{"binder": "B4", "EC50 hGLP-1R (cAMP formation)": 0.9}
{"binder": "B5", "EC50 hGLP-1R (cAMP formation)": 2.8}
{"target": "human glucagon receptor (human, UniProt P47871 26-477)", "sequence (P47871 26-477)": "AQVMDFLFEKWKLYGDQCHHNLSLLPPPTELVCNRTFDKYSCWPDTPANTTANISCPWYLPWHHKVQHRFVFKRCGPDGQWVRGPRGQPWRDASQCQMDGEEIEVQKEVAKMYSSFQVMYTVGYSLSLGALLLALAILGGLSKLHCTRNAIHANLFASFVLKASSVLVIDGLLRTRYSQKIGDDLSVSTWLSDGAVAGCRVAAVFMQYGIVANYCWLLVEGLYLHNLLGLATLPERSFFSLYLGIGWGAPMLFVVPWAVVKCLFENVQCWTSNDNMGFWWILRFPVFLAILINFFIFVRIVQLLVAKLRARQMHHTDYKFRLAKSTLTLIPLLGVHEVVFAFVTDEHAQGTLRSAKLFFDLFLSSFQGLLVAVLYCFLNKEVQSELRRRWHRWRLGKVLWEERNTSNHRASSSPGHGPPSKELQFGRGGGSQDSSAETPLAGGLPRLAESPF", "assay": "cell-based or functional assay", "units": {"EC50 hGlucagon R (cAMP formation)": "pM"}}
{"binder": "B1", "EC50 hGlucagon R (cAMP formation)": 4.3}
{"binder": "B2", "EC50 hGlucagon R (cAMP formation)": 5.3}
{"binder": "B3", "EC50 hGlucagon R (cAMP formation)": 4.5}
{"binder": "B4", "EC50 hGlucagon R (cAMP formation)": 3.4}
{"binder": "B5", "EC50 hGlucagon R (cAMP formation)": 2.1}
